Here are results for 1 molecule from article PMC2928749, “Understanding the Role of the Josephin Domain in the PolyUb Binding and Cleavage Properties of Ataxin-3” (PLoS ONE, 2010).

Test [1] has as its target T1, K48-linked diUb (made from UbD77 and UbK48C) (UniProt P0CG47 1-76; P0CG47 1-76, UbD77 | UbK48C, K48-linked to the other Ub (isopeptide bond between K48 and G76) | K48-linked to the other Ub (isopeptide bond between K48 and G76)).
T1 construct: ubiquitin, mutant UbD77; ubiquitin, mutant UbK48C; also called K48-linked diUb chains; K48-diUb; copies: 1 + 1
Description: NMR titration; 15N-labelled Josephin (C14A) 0.05 mM in 20 mM sodium phosphate pH 6.5, 2 mM DTT, 298 K, 600 MHz; stepwise additions of unlabelled K48- or K63-linked diUb up to 10 and 2.5 fold molar excess; chemical shift perturbation. Particulars: both partners purified.

Test [2] addresses T2, K63-linked diUb (made from UbD77 and UbK63R) (UniProt P0CG47 1-76; P0CG47 1-76, UbD77 | UbK63R, K63-linked to the other Ub (isopeptide bond between K63 and G76) | K63-linked to the other Ub (isopeptide bond between K63 and G76)).
T2 construct: ubiquitin, mutant UbD77; ubiquitin, mutant UbK63R; By the usual protocol G76 of UbK63R is joined to K63 of UbD77; also called K63-linked diUb chains; K63-diUb; source: recombinant Ub mutants joined with E1, Ubc13 and Uev1a by the same protocol, purified on a monoS cation exchange column; copies: 1 + 1
The test is described as above. The following applies: both partners purified.

B1: Josephin domain of ataxin-3 (amino acids 1-182), C14A mutant, 15N labelled (domain or fragment, UniProt P54252 1-182, looked up)
chain: MESIFHEKQEGSLAAQHCLNNLLQGEYFSPVELSSIAHQLDEEERMRMAEGGVTSEDYRTFLQQPSGNMDDSGFFSIQVISNALKVWGLELILFNSPEYQRLRIDPINERSFICNYKEHWFTVRKLGKQWFNLNSLLTGPELISDTYLALFLAQLQQEGYSIFVVKGDLPDCEADQLLQMIR
modifications: 15N labelled
notes: ataxin-3, N-terminal catalytic Josephin domain, amino acids 1-182; catalytic cysteine mutated so that no cleavage could occur; The methods speak of titrations of 15N Josephin or of the C14A mutant; the results say that C14A was used; also called isolated Josephin domain; C14A Josephin mutant; source: E. coli BL21(DE3), purified as previously described [35]; grown in synthetic medium with 15NH4Cl
Turning to B1, the binding result in test [1] and in test [2] was “binds” in each case.
